Patent US20260109761A1 (IP2IPO INNOVATIONS, published 2026)

Assays:
huZIP12-ECD-GST [1] = molecular target: T1, huZIP12-ECD-GST (human, UniProt Q504Y0 24-202); experiment: SPR single cycle kinetics, mAb captured on protein A, 3.12-800 nM huZIP12-ECD-GST
T1 construct: also called hZIP12-ECD-GST; human ZIP12-ECD-GST; not shown: glutathione S-transferase (GST) tag
Description: (§1) Single Cycle Kinetics (SCK) involves first capturing the mAb onto the protein A sensor surface and then sequentially injecting a series of concentrations of huZIP12-ECD-GST over the surface starting at the lowest concentration and ending with the highest concentration. The final concentration is followed by a dissociation phase where buffer only is passed across the surface followed by regeneration, where the remaining bound huZIP12-ECD-GST is removed from the surface by injection of a 10 mM Glycine pH 1.5 and 50 mM NaOH solution. The SCK is repeated for each monoclonal antibody providing duplicate data and the kinetics of each interaction is evaluated by the Biacore software.
(§2) Referring to FIG. 6, there are shown the kinetic parameters obtained for all antibody variants when screened with the 3.12 nM to 800 nM huZIP12-ECD-GST. […] Affinity.

huZIP12-ECD-GST [2] = molecular target: T1, huZIP12-ECD-GST; experiment: SPR single cycle kinetics (Biacore): mAb captured on protein A, huZIP12-ECD-GST injected at 3.12-800 nM
Description: as §1, §2

huZIP12-ECD-GST [3] = molecular target: T1, huZIP12-ECD-GST; experiment: SPR single cycle kinetics (Biacore): mAb captured on protein A, huZIP12-ECD-GST injected at 2.34-600 nM, extended dissociation
Description: as §1
A selection of the higher affinity antibody variants were re-tested at a lower concentration series with an extended dissociation time with the objective of obtaining a better assessment of the binding kinetics. Referring now to FIG. 7, there are shown the data for the monoclonal antibodies that were re-tested to optimise the binding kinetic data. Once again, three antibody variants, H3_W99H_L1, H3_W99HL2 and H3_W99H_VL-par, all appear to have a higher affinity than the parent antibody. The on-rate (ka), off-rate (kd) and overall affinity measurement (KD) are all improved compared to the 51B12 VH_VL_par parent antibody.

huZIP12-ECD-GST [4] = molecular target: T1, huZIP12-ECD-GST; experiment: SPR single cycle kinetics, mAb captured on protein A, ZIP12-ECD-GST injected; human ZIP12-ECD-GST; Example 8 cross-species SCK (FIG. 12 average)
Description: as §1, with “Surface plasmon resonance (SPR) is a label free biophysical technique that allows the direct measurement of biomolecular interactions. A single cycle kinetics (SCK) SPR direct binding assay was developed to characterise antibody binding to human, cyno, pig and canine ZIP12 fusion proteins. This assay was used to characterise the binding kinetics of the monoclonal antibody, 51B12 W99H_L1 against each of the four proteins (defined by kon, koff, KD). Single” for “Single”, “of ZIP12-ECD-GST” for “of huZIP12-ECD-GST”

[5] = molecular target: T2, cynomolgus monkey ZIP12-ECD-GST (cynomolgus monkey, UniProt Q95KA5 24-207); experiment: SPR single cycle kinetics, mAb captured on protein A, ZIP12-ECD-GST injected; cynomolgus monkey ZIP12-ECD-GST; Example 8 cross-species SCK (FIG. 12 average)
T2 construct: extracellular domain; also called cyno ZIP12 fusion protein; cynomolgus monkey ZIP12-GST-ECD; not shown: glutathione S-transferase (GST) tag
T2 sequence (Q95KA5 24-207): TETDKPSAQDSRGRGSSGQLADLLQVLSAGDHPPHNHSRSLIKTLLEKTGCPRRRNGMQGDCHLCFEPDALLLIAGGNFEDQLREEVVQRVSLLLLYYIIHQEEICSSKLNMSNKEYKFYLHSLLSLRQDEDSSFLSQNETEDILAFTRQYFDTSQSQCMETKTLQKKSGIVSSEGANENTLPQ
Description: as §1, with “Surface plasmon resonance (SPR) is a label free biophysical technique that allows the direct measurement of biomolecular interactions. A single cycle kinetics (SCK) SPR direct binding assay was developed to characterise antibody binding to human, cyno, pig and canine ZIP12 fusion proteins. This assay was used to characterise the binding kinetics of the monoclonal antibody, 51B12 W99H_L1 against each of the four proteins (defined by kon, koff, KD). Single” for “Single”, “of ZIP12-ECD-GST” for “of huZIP12-ECD-GST”

T1 sequence (Q504Y0 24-202): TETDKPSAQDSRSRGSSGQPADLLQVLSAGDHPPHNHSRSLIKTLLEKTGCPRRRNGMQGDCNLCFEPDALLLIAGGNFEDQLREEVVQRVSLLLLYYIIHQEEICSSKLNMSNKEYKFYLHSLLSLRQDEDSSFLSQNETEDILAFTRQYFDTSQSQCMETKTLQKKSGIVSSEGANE

B1: H3_W99H_L1 (antibody, V domains shown)
VH: QVQLVESGGGVVQPGRSLRLSCAASGFTFSDYGMHWVRQAPGKGLEWVAYISSGGTTIYYADTVKGRFTISRDNSKNTLYLQMNSLRAEDTAVYYCARHTNLYAMDYWGQGTTVTVSS
VL: DIVLTQSPDSLAVSLGERATINCRASKSVSTQGYSYMHWYQQKPGQPPKFLIYLASNLESGVPDRFSGSGSGTDFTLTISSLQAEDVAVYYCQHSREVPYTFGGGTKVEIKR
notes: Fc null human IgG1 / human kappa
Binder B1 has a Kd (huZIP12-ECD-GST [1]) of ~0.5 nM, a Kd (huZIP12-ECD-GST [2]) of 0.533 nM and a koff (huZIP12-ECD-GST [2]) of 4.98e-05 s⁻¹. For the same binder, the kon (huZIP12-ECD-GST [2]) was 93400 M⁻¹ s⁻¹, the Kd (huZIP12-ECD-GST [3]) was 0.314 nM and the koff (huZIP12-ECD-GST [3]) was 3.14e-05 s⁻¹. The kon (huZIP12-ECD-GST [3]) was 99900 M⁻¹ s⁻¹, the Kd (huZIP12-ECD-GST [4]) was 4.02 nM and the Kd [5] was 6.31 nM.
